For two substances, Kd results are on record in PMC7593965.

As a reminder, the Kd is the constant that tells how readily two partners part at equilibrium. Low readings indicate tighter binding, high ones weaker binding.

The target of the test is isolated C-terminal domain of FusB (Pectobacterium carotovorum LMG2410). The test can be described thus: ITC; MicroCal iTC200, 25°C, 10 mM Tris-HCl (pH 7.5)-150 mM NaCl; titrant (FusANTR-GFP, GFP or FerSp) injected in 2 μl steps into FusBCTD, FusBCTD R176K/R177K or TonBCTD in the cell. (Isothermal titration calorimetry measures the heat released or taken up as one component is titrated into another.)

“spinach ferredoxin (from UniProt P00221 51-147) (natural protein)” gave a Kd of 8.7 µM.
With “N-terminal region of FusA (residues 21 to 66) fused to green fluorescent protein (from UniProt C6DG80 21-66) (domain or fragment)” the figure was 57 µM.
